T1: bZIP25 DNA binding domain and leucine zipper region (V230-S322) (Arabidopsis thaliana (Mouse-ear cress), UniProt Q9M1G6)
T1 chain: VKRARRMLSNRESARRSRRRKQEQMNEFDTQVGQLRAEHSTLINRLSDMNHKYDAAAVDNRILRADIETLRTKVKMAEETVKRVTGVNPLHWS

B1: bZIP53 DNA binding domain and leucine zipper region (Y18-D116) (domain or fragment, Arabidopsis thaliana, UniProt Q9LZP8 18-116, looked up)
chain: YATVTDERKRKRMISNRESARRSRMRKQKQLGDLINEVTLLKNDNAKITEQVDEASKKYIEMESKNNVLRAQASELTDRLRSLNSVLEMVEEISGQALD
notes: An internal HindIII site of the amplicon was destroyed by site-directed mutagenesis; Measured monomer mass 12957 Da; In the protoplast reporter assays the full-length protein was expressed from a plasmid; also called basic leucine zipper 53; source: E. coli BL21 (DE-3), HPLC purified
B2: bZIP39 DNA binding domain and leucine zipper region (V351-L442) (protein)
chain: VEKVVERRQRRMIKNRESAARSRARKQAYTVELEAELNQLKEENAQLKHALAELERKRKQQYFESLKSRAQPKLPKSNGRLRTLMRNPSCPL
B3: bZIP25 DNA binding domain and leucine zipper region (V230-S322) (domain or fragment, Arabidopsis thaliana, UniProt Q9M1G6 230-322, looked up)
chain: T1 chain
notes: In the protoplast reporter assays the full-length protein was expressed from a plasmid; source: E. coli BL21 (DE-3), HPLC purified

Tests used:
[1] = CD thermal denaturation; protein alone, 2 µM dimer, ellipticity at 222 nm, heated from 6–85 °C, two-state fit; KD at 25 °C calculated from ΔGDi; dimer to monomers; details: other: CD thermal denaturation
[2] = biological target: bZIP10 DNA binding domain and leucine zipper region (V216-S301) (Arabidopsis thaliana); assay: native MS; ESI-MS in unbuffered MS grade water, 2 µM homodimer, 4 µM heterodimer mixtures, samples kept at 23 ± 2 °C, ion spray interface temperature switched off, declustering potential 10 V
[3] = biological target: bZIP10 DNA binding domain and leucine zipper region (V216-S301) (Arabidopsis thaliana); assay: CD thermal denaturation; protein alone, 2 µM dimer, ellipticity at 222 nm, heated from 6–85 °C, two-state fit; KD at 25 °C calculated from ΔGDi; dimer to monomers
[4] = biological target: the molecule itself; assay: native MS; ESI-MS in unbuffered MS grade water, 2 µM homodimer, 4 µM heterodimer mixtures, samples kept at 23 ± 2 °C, ion spray interface temperature switched off, declustering potential 10 V
[5] = biological target: the molecule itself; assay: CD thermal denaturation; protein alone, 2 µM dimer, ellipticity at 222 nm, heated from 6–85 °C, two-state fit; KD at 25 °C calculated from ΔGDi; dimer to monomers
[6] = biological target: T1, bZIP25 DNA binding domain and leucine …; assay: CD thermal denaturation (222 nm) of equimolar mix versus sum curve, plus ESI-MS; absence of DNA; the paper concludes heterodimerization is DNA-mediated (synergistic reporter activation in protoplasts)
[7] = biological target: Q9LZP8; assay: CD thermal denaturation; protein alone, 2 µM dimer, ellipticity at 222 nm, heated from 6–85 °C, two-state fit; KD at 25 °C calculated from ΔGDi; dimer to monomers; details: other: CD thermal denaturation
[8] = biological target: Q9SJN0; assay: as above; details: other: CD thermal denaturation
[9] = biological target: Q9M1G6; assay: as above; details: other: CD thermal denaturation

| Molecule | dH (ΔHm, at Tm) [1] [kcal/mol] | stoichiometry N [4] | Kd [5] [nM] | further results |
| --- | --- | --- | --- | --- |
| bZIP10 DNA binding domain and leucine zipper region (V216-S301) | -41.1 |  |  |  |
| bZIP72 DNA binding domain and leucine zipper region (D48-T150) | -57.3 |  |  |  |
| bZIP10 DNA binding domain and leucine zipper region (V216-S301) (domain or fragment) |  |  |  | stoichiometry N [2]: 2; Kd [3]: 3 nM |
| B1 |  | 2 | 50 | binding result [6]: no binding; dH (ΔHm, at Tm) [7]: -35.5 kcal/mol |
| B2 |  |  |  | dH (ΔHm, at Tm) [8]: -43.2 kcal/mol |
| B3 |  | 2 | 0.05 | dH (ΔHm, at Tm) [9]: -55.3 kcal/mol |

From PMC5662769, “A-ZIP53, a dominant negative reveals the molecular mechanism of heterodimerization between bZIP53, bZIP10 and bZIP25 involved in Arabidopsis seed maturation” (Scientific Reports, 2017)
